According to patent US20230167423A1, “RING NUCLEASE” (priority 2019, published 2023):
“Also recorded” adds a separate entry of the source. Like-named read-outs stand apart in the source and are kept apart here.

Legend:
cA4 [1] = experiment: Radiolabelled cA4 cleavage assay, single turnover kinetics; assay type: biochemical; details: for cA4 cleavage / ring nuclease activity in vitro: 37° C., recombinant protein (FIG. 5); for cA4 cleavage single turnover rate constant: 50° C., 4 μM protein dimer, Csx1 buffer
[2] = tested on: HEPN ribonuclease StCsm6′; experiment: cA6 degradation, deactivation of cA6-activated HEPN ribonuclease StCsm6′; assay type: biochemical, S. thermophilus
Experimental: Ring nuclease (Tsac_2833, 2 μM dimer) was incubated with the indicated concentration of cA6 for 60 min at 37° C. […] Control c1 is RNA in the absence of protein, c2 is RNA incubated with Tsac_2833 and c3 is RNA incubated with StCsm6′ in the absence of cA6 activator. vRN—ring nuclease.
Ring nuclease (SIRV1_114a, 2 μM; labelled “vRN”) was incubated with the indicated concentration of cA6 for 20 or 60 min at 70° C. and cooled on ice for 5 min.
When investigating cA6 degradation capacity, THSA-485A Tsac_2833 (2 μM dimer) was incubated with cA6 (50-0.5 μM) for 20 min or 60 min at 37° C. prior to adding 0.5 μM dimer StCsm6′ and 50 nM radio-labelled RNA A1. Reactions were then left to proceed for 60 min at 37° C. before quenching reactions by phenol-chloroform extraction and visualising RNA degradation by phosphor imaging following denaturing PAGE.
A deactivation assay was carried out using the S. thermophilus HEPN ribonuclease StCsm6′, a ribonuclease activated by cA6.

[3] = tested on: recombinant type III CRISPR system from Mycobacterium tuberculosis; assay type: cell-based, Escherichia coli
cA4 [4] = experiment: Substrate specificity of ring nuclease by TLC: cA4; assay type: biochemical; details: multiple-turnover, 49 μM protein, 450 μM substrate, 70° C.
Experimental: (§1) The reactions were then deproteinised by phenol-chloroform extraction followed by chloroform extraction and products separated by TLC. Substrate degradation was visualised and imaged under short-wave ([…]) UV light.

cA6 = experiment: Substrate specificity of ring nuclease by TLC: cA6; assay type: biochemical; details: multiple-turnover, 49 μM protein, 450 μM substrate, 70° C.
Experimental: as §1

cyclic-AMP = experiment: Substrate specificity of ring nuclease by TLC: cyclic-AMP; assay type: biochemical; details: multiple-turnover, 49 μM protein, 450 μM substrate, 70° C.
Experimental: as §1

cyclic-di-AMP = experiment: Substrate specificity of ring nuclease by TLC: cyclic-di-AMP; assay type: biochemical; details: multiple-turnover, 49 μM protein, 450 μM substrate, 70° C.
Experimental: as §1

cyclic-di-GMP = experiment: Substrate specificity of ring nuclease by TLC: cyclic-di-GMP; assay type: biochemical; details: multiple-turnover, 49 μM protein, 450 μM substrate, 70° C.
Experimental: as §1

cyclic-CAMP = experiment: Substrate specificity of ring nuclease by TLC: cyclic-CAMP; assay type: biochemical; details: multiple-turnover, 49 μM protein, 450 μM substrate, 70° C.
Experimental: as §1

[5] = molecular target: T1, HEPN family ribonuclease Csx1 (Saccharolobus solfataricus, UniProt Q97YD5); experiment: Deactivation of HEPN nuclease Csx1 in coupled assay with Csm complex and A26 RNA target; assay type: biochemical, Sulfolobus solfataricus
T1 sequence (Q97YD5 1-377): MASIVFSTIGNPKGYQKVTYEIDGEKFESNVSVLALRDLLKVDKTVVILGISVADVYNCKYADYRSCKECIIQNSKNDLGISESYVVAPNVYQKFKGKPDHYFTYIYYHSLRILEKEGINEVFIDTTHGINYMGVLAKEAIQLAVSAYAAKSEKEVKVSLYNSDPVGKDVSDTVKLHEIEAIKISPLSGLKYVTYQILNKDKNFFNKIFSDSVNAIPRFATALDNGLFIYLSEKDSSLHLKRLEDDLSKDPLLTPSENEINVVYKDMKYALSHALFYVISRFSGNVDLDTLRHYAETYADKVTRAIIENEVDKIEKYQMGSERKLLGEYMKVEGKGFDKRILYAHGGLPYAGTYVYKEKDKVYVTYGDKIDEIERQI
Experimental: FIG. 4. Comparison of the kinetics of the ring nucleases disclosed herein and cellular ring nucleases in deactivating the type III CRISPR defence. • a) Top panel is a phosphor image of denaturing polyacrylamide gel electrophoresis showing activation of HEPN family ribonuclease Csx1 (0.5 μM dimer) and consequent radioactively labelled RNA A1 cleavage in a coupled assay containing type III Csm CRISPR complex carrying A26 CRISPR RNA when challenged by indicated amounts of A26 RNA target to initiate cA4 synthesis. RNA A1 is not a target of Csm. Each set of three lanes after the control (c) reaction with Csx1 and labelled non-target RNA alone, is first in the absence and then the presence the ring nuclease SIRV1 gp29 (labelled “vRN”) or S. solfataricus cellular ring nuclease (cRN) Sso2081 (2 μM dimer), respectively. Whereas the SIRV1 gp29 ring nuclease is able to degrade all cA4 generated with up to 50 nM RNA A26 target, the cellular ring nuclease deactivates Csx1 and protects substrate RNA from degradation only when less than 5 nM A26 RNA target is used to initiate cA4 synthesis. Bottom panel is a phosphor image of thin-layer chromatography with reactions as above but visualizes cA4 production, by a-ATP incorporation, in the presence of indicated amounts of A26 RNA target and absence or presence of either SIRV1 gp29 or cellular ring nuclease. […]

cA4 [6] = experiment: cA4 degradation capacity: Csx1 activation by HPLC-purified cA4 and deactivation by ring nuclease; assay type: biochemical; details: ring nuclease 2 μM dimer, Csx1 0.5 μM dimer
Experimental: FIG. 4. […] RNA A1 is not a target of Csm. Each set of three lanes after the control (c) reaction with Csx1 and labelled non-target RNA alone, is first in the absence and then the presence the ring nuclease SIRV1 gp29 (labelled “vRN”) or S. solfataricus cellular ring nuclease (cRN) Sso2081 (2 μM dimer), respectively. Whereas the SIRV1 gp29 ring nuclease is able to degrade all cA4 generated with up to 50 nM RNA A26 target, the cellular ring nuclease deactivates Csx1 and protects substrate RNA from degradation only when less than 5 nM A26 RNA target is used to initiate cA4 synthesis. Bottom panel is a phosphor image of thin-layer chromatography with reactions as above but visualizes cA4 production, by a-ATP incorporation, in the presence of indicated amounts of A26 RNA target and absence or presence of either SIRV1 gp29 or cellular ring nuclease. Csx1 deactivation correlated with complete cA4 degradation. • b) Denaturing gel electrophoresis visualising activation of Csx1 (0.5 μM dimer) by indicated amounts of HPLC-purified cA4 (BIOLOG Life Sciences) and its subsequent deactivation when either SIRV1 gp29 ring nuclease (“vRN”) or cellular ring nuclease (2 μM dimer) is present to degrade cA4. The SIRV1 gp29 ring nuclease degrades 100-fold more cA4 than the cellular ring nuclease. Control reactions (c) show RNA incubated with SIRV1 gp29 or Csx1 in the absence of cA4, respectively. […]

B1: THSA-485A Tsac_2833: DUF1874 ring nuclease from Thermoanaerobacterium bacteriophage THSA-485A, SEQ ID NO. 6 (protein, listed as Archael virus)
chain: MFIANAFSLQMLSQFPAHIDIEEVATSAVAKLDLQSAIGHADTAVVLSGILGKDIESNRVNVQLQPGDSLIVAQLMGGRLPEGSTTLPAGFSFKFFKVTVQA
Question: For B1, which “cA4 cleavage / ring nuclease activity in vitro” value (cA4 [1]) is on record?
Answer: cleave cA4 rapidly

Question: And the “cA6 degradation: protection of substrate RNA from StCsm6′” value (“cA6 degradation: protection” for short) ([2]; 2 μM dimer pre-incubated with cA6 at 37° C.)?
Answer: protection of the substrate RNA; also recorded: Clear inhibition of substrate RNA cleavage

Question: And the “effect on cA4-mediated type III CRISPR immunity (plasmid transformation)” value [3]?
Answer: overcomes type III CRISPR immunity

Question: What about the “effect on cA4-mediated type III CRISPR immunity (plasmid transformation)” value ([3]; listed as Tsac_2833) of the same molecule?
Answer: effective in neutralising a cA4-mediated CRISPR defence; also recorded: reduced immunity for cA4-mediated CRISPR defence

B2: B. subtilis yddf: DUF1874 protein encoded by gene yddF of Bacillus subtilis, prophage origin, SEQ ID NO. 15 (protein, listed as Archael virus)
chain: MEIAFLNSLVVTSPGFYKAEKITLDEVKQWLKHYDGRYKSFIGHKSTAQFLQKLLGIRIEQNRKTFRHMKYQKAICFSLYERYPENVLLTQRDLEKARYQFYLLTRLD
Question: With B2 as the molecule, how does the “cA4 cleavage / ring nuclease activity in vitro” value (cA4 [1]) read?
Answer: cleave cA4 rapidly

B3: Crenothrix polyspora: DUF1874 protein, sequence WP_087145848.1 from the bacterium Crenothrix polyspora, SEQ ID NO. 16 (protein, listed as Crenothrix polyspora)
chain: MTLFIINAPILTSYGDWRFEGPLSIDKTRKLLREGFTSAIGHAASAEMLARLLAMDIPVNRIAITMEAGDRALILRLLQRLPEGKVLNHHEMMATPFELALLTKLK
Question: How did the “cA4 cleavage / ring nuclease activity in vitro” value (cA4 [1]) turn out when B3 was run?
Answer: cleave cA4 rapidly

B4: SIRV1 gp29: DUF1874 ring nuclease, ORF 114a of Sulfolobus islandicus rudivirus 1 (SIRV1), SEQ ID NO. 7 (protein, listed as Archael virus)
chain: MNKVYLANAFSINMLTKFPTKVVIDKIDRLEFCENIDNEDIINSIGHDSTIQLINSLCGTTFQKNRVEIKLEKEDKLYVVQISQRLEEGKILTLEEILKLYESGKVQFFEIIVD
Question: B4 was tested. Which “degradation of cA4 (TLC)” value (cA4 [4]) did it give?
Answer: rapidly degrades; also recorded: specific for the degradation

Question: What about the “degradation of cA6 (TLC)” value (cA6) of the same molecule?
Answer: rapidly degrades; also recorded: specific for the degradation

Question: What about the “degradation of cyclic-AMP (TLC)” value (cyclic-AMP) of the same molecule?
Answer: does not degrade

Question: And the “degradation of cyclic-di-AMP (TLC)” value (cyclic-di-AMP)?
Answer: does not degrade; also recorded: does not recognise

Question: And the “degradation of cyclic-di-GMP (TLC)” value (cyclic-di-GMP)?
Answer: does not degrade; also recorded: does not recognise

Question: And the “degradation of cyclic-CAMP (TLC)” value (cyclic-CAMP)?
Answer: does not degrade; also recorded: does not recognise

Question: And the “cA4 cleavage single turnover rate constant” value (cA4 [1])?
Answer: 7 ± 1 min⁻¹

Question: And the “cA4 cleavage single turnover rate constant” value (cA4 [1]; listed as SIRV1 gp29 (orf 114a))?
Answer: 7.4 min⁻¹

Question: And the “de-activation of cA4-activated HEPN nuclease Csx1 compared with cRN Sso2081” value ([5]; over a range of RNA and cA4 concentrations (FIG. 4))?
Answer: far more effectively

Question: And the “amount of A26 RNA target up to which all generated cA4 is degraded / Csx1 deactivated” value ([5]; ring nuclease 2 μM dimer, Csx1 0.5 μM dimer, 70° C.)?
Answer: up to 50 nM

Question: And the “amount of cA4 degraded relative to cellular ring nuclease” value (cA4 [6])?
Answer: 100 fold

Question: And the “cA6 degradation: protection” value ([2]; 2 μM pre-incubated with cA6 for 20 or 60 min at 70° C.)?
Answer: clear inhibition of substrate RNA cleavage

Question: And the “cA6 degradation: protection” value ([2]; 2 μM pre-incubated with cA6 for 20 or 60 min at 70° C., listed as SIRV1_114a)?
Answer: protection of the substrate RNA
